Test results as given in patent US20240165282A1, “CONFORMATIONAL CONSTRAINED SOMATOSTATIN RECEPTOR 3 PEPTIDE LIGANDS AND THEIR CONJUGATES AND USES THEREOF” (STARGET PHARMA LTD., priority 2021, published 2024).
*1 amine or outer side, *2 acyl side, *3 side chain or, on linkers, in order; H or OH if unused. Bridges are numbered along the chain shown (N, C = ends). [ ]: non-standard residue; d: D form. The star is where a group is joined. DOTA = O=C(O)CN1CCN(CC(=O)O)CCN(CC(=O)*)CCN(CC(=O)O)CC1; N(2-mercaptoethyl)Gly = O=C(CN(CCS[*:3])[*:1])[*:2]

Assays:
Assay in all cases: cell-based or functional assay
CRHR1 (human) = CRHR1 (human) (UniProt P34998)
FFAR1 (human) = FFAR1 (human) (UniProt O14842)
C5aR1 (human) = C5aR1 (human) (UniProt P21730)
GHSR (human) = GHSR (human) (UniProt Q92847)
HTR5A (human) = HTR5A (human) (UniProt P47898)
RXFP3 (human) = RXFP3 (human) (UniProt Q9NSD7)
GPR103 (human) = GPR103 (human) (UniProt Q96P65)
HRH3 (human) = HRH3 (human) (UniProt Q9Y5N1)
MCHR2 (human) = MCHR2 (human) (UniProt Q969V1)
HTR2C (human) = HTR2C (human) (UniProt P28335)
NPBWR1 (human) = NPBWR1 (human) (UniProt P48145)
MC1R (human) = MC1R (human) (UniProt Q01726)
EDG1 (human) = EDG1 (human) (UniProt P21453)
KISS1R (human) = KISS1R (human) (UniProt Q969F8)
CXCR6 (human) = CXCR6 (human) (UniProt O00574)
TBXA2R (human) = TBXA2R (human) (UniProt P21731)
PTGER3 (human) = PTGER3 (human) (UniProt P43115)
PTGER2 (human) = PTGER2 (human) (UniProt P43116)
CXCR1 (human) = CXCR1 (human) (UniProt P25024)
CHRM5 (human) = CHRM5 (human) (UniProt P08912)
F2RL3 (human) = F2RL3 (human) (UniProt Q96RI0)
HCRTR1 (human) = HCRTR1 (human) (UniProt O43613)
TSHR(L) (human) = TSHR(L) (human) (UniProt P16473)
TACR1 (human) = TACR1 (human) (UniProt P25103)
EDNRA (human) = EDNRA (human) (UniProt P25101)
LTB4R (human) = LTB4R (human) (UniProt Q15722)
CXCR7 (human) = CXCR7 (human) (UniProt P25106)
AVPR1B (human) = AVPR1B (human) (UniProt P47901)
CCR1 (human) = CCR1 (human) (UniProt P32246)
GALR2 (human) = GALR2 (human) (UniProt O43603)
HTR1E (human) = HTR1E (human) (UniProt P28566)
BDKRB2 (human) = BDKRB2 (human) (UniProt P30411)
GRPR (human) = GRPR (human) (UniProt P30550)
GPR35 (human) = GPR35 (human) (UniProt Q9HC97)
DRD2S (human) = DRD2S (human) (UniProt P14416)
PROKR2 (human) = PROKR2 (human) (UniProt Q8NFJ6)
GCGR (human) = GCGR (human) (UniProt P47871)
PPYR1 (human) = PPYR1 (human) (UniProt P50391)
PTGER4 (human) = PTGER4 (human) (UniProt P35408)
P2RY11 (human) = P2RY11 (human) (UniProt Q96G91)
CCR9 (human) = CCR9 (human) (UniProt P51686)
PRLHR (human) = PRLHR (human) (UniProt P49683)
VIPR2 (human) = VIPR2 (human) (UniProt P41587)
NPBWR2 (human) = NPBWR2 (human) (UniProt P48146)
PTAFR (human) = PTAFR (human) (UniProt P25105)
MC4R (human) = MC4R (human) (UniProt P32245)
AVPR2 (human) = AVPR2 (human) (UniProt P30518)
ADRA2A (human) = ADRA2A (human) (UniProt P08913)
P2RY6 (human) = P2RY6 (human) (UniProt Q15077)
CNR2 (human) = CNR2 (human) (UniProt P34972)
ADRA2B (human) = ADRA2B (human) (UniProt P18089)
EDG3 (human) = EDG3 (human) (UniProt Q99500)
CCR4 (human) = CCR4 (human) (UniProt P51679)
OXER1 (human) = OXER1 (human) (UniProt Q8TDS5)
CCKBR (human) = CCKBR (human) (UniProt P32239)
ADCYAP1R1 (human) = ADCYAP1R1 (human) (UniProt P41586)
C5L2 (human) = C5L2 (human) (UniProt Q9P296)
BDKRB1 (human) = BDKRB1 (human) (UniProt P46663)
HCRTR2 (human) = HCRTR2 (human) (UniProt O43614)

NPBWR2 (human), sequence (P48146 whole entry): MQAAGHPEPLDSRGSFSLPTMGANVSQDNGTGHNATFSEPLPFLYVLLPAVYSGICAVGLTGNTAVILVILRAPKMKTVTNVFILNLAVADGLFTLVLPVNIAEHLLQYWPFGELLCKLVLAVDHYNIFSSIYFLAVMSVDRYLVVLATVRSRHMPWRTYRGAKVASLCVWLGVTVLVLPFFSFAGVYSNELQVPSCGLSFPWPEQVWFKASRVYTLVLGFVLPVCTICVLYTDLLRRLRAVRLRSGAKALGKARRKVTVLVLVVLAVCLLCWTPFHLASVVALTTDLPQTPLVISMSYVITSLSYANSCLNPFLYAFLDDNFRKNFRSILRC
GALR2 (human), sequence (O43603 whole entry): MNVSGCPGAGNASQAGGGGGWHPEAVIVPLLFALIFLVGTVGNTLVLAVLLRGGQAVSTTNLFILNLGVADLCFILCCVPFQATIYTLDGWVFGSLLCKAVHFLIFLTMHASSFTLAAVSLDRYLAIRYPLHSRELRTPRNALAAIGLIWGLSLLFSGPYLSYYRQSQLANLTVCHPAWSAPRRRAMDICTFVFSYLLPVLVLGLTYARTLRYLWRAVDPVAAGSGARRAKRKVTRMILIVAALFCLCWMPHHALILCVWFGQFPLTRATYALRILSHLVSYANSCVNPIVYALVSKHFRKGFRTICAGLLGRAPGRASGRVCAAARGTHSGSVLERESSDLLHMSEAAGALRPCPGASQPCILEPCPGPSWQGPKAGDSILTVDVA
TACR1 (human), sequence (P25103 whole entry): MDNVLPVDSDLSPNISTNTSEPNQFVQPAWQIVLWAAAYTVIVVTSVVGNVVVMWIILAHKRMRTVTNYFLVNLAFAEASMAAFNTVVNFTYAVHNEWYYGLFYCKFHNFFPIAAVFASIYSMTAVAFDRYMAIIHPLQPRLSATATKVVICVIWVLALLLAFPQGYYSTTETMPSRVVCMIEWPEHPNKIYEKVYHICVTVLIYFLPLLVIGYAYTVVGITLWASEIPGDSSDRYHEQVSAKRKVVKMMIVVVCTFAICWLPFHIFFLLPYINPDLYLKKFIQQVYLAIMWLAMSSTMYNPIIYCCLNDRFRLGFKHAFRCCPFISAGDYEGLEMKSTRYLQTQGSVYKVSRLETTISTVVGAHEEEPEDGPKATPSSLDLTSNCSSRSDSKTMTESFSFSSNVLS
GPR35 (human), sequence (Q9HC97 whole entry): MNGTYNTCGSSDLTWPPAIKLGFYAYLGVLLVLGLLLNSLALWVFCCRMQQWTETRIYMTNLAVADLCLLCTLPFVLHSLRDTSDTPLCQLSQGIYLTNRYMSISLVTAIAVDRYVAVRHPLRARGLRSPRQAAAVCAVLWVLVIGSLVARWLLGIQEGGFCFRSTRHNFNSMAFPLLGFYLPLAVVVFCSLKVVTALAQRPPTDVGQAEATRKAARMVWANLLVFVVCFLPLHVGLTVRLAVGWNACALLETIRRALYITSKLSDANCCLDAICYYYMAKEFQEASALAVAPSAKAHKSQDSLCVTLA
P2RY6 (human), sequence (Q15077 whole entry): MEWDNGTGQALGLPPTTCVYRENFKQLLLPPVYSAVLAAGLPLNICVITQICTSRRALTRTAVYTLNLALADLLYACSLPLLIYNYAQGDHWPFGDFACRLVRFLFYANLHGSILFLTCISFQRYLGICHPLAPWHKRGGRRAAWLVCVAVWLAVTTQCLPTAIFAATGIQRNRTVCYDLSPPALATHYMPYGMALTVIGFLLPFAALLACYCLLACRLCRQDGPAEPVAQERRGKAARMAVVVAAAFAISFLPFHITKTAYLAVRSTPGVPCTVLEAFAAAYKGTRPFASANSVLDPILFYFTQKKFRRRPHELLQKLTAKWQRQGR
CCKBR (human), sequence (P32239 whole entry): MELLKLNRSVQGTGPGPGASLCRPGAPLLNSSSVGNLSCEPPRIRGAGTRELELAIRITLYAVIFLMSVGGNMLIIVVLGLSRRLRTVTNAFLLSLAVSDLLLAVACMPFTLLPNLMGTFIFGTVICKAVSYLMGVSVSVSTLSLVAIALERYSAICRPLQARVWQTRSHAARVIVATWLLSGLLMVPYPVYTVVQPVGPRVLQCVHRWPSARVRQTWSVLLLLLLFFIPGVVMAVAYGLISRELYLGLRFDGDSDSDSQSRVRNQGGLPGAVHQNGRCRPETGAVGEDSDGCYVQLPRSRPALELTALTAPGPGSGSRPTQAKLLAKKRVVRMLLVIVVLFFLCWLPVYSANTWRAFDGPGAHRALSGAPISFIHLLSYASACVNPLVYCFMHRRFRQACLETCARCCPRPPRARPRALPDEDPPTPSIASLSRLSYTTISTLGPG
TSHR(L) (human), sequence (P16473 21-764): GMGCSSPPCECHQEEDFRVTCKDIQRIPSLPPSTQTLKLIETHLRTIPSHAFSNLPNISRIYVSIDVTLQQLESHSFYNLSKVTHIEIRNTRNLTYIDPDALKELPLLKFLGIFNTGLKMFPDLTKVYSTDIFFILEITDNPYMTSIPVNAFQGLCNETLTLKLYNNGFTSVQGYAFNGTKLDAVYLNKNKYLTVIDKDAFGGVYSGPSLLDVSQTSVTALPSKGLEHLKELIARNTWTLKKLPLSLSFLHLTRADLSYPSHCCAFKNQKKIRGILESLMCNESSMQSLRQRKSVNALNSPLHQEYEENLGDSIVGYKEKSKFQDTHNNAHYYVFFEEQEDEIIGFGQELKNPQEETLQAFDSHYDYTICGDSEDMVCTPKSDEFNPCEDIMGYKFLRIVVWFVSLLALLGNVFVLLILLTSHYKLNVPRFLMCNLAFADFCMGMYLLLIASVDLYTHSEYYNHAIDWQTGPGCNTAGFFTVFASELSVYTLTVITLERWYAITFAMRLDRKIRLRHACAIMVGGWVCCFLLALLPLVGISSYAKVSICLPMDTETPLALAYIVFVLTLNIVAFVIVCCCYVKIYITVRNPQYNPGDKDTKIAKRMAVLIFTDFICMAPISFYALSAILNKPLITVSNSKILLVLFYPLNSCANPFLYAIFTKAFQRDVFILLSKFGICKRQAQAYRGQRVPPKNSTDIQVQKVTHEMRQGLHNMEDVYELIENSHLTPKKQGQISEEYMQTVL
CNR2 (human), sequence (P34972 whole entry): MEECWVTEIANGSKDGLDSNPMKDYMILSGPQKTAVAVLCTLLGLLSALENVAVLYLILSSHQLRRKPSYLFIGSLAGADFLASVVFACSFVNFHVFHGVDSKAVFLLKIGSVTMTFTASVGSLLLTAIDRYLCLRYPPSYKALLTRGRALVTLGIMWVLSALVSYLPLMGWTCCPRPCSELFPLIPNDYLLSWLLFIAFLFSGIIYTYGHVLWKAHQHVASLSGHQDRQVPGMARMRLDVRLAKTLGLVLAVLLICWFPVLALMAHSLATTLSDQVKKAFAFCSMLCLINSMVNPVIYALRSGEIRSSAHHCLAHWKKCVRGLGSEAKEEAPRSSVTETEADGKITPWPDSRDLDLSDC
KISS1R (human), sequence (Q969F8 whole entry): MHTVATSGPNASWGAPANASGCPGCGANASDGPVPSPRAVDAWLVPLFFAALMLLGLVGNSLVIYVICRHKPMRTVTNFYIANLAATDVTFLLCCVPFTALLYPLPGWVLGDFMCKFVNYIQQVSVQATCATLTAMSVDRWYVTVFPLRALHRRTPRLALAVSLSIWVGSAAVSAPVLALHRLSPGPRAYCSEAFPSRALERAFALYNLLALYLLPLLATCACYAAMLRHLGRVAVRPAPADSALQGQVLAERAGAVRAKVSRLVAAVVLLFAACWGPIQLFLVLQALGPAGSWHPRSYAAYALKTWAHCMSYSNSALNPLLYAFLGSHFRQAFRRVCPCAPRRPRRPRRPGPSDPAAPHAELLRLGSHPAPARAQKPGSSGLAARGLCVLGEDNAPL
HRH3 (human), sequence (Q9Y5N1 whole entry): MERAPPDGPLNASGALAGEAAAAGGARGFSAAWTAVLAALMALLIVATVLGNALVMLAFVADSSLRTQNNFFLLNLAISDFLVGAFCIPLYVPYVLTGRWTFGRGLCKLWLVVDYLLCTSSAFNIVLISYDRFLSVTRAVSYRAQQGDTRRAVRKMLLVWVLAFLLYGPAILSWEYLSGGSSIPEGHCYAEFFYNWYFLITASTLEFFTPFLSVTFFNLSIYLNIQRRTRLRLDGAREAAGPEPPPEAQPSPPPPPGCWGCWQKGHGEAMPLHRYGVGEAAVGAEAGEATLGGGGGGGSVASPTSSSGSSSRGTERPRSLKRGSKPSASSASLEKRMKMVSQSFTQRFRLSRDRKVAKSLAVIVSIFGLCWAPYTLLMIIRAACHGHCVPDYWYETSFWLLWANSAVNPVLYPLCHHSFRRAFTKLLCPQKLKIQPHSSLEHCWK
CCR1 (human), sequence (P32246 whole entry): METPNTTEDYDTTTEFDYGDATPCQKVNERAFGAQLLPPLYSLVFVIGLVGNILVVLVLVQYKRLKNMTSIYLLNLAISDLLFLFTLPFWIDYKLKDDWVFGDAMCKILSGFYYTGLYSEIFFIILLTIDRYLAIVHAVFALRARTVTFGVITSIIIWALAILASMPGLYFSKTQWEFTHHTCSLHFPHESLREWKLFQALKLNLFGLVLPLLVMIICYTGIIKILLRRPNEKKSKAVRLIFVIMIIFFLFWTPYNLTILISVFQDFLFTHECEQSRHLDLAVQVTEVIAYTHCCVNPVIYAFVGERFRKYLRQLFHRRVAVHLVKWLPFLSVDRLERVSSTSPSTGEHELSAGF
PTAFR (human), sequence (P25105 whole entry): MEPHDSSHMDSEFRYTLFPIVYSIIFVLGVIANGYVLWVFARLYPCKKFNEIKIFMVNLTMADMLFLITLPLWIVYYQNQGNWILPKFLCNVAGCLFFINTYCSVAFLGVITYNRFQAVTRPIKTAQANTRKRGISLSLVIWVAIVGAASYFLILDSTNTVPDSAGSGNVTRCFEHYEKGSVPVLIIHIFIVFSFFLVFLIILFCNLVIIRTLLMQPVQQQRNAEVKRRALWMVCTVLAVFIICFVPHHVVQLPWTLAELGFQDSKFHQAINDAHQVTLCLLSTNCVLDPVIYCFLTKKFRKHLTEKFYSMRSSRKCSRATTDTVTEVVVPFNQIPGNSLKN

**Q.** {DOTA}-[dF]RCF[dW]KTF[N(2-mercaptoethyl)Gly]-NH2 (disulfide 3-9; also: Ga complex of DOTA) [SEQ ID NO: 4] was tested. Which % Activity (agonist mode, 1 µM) (CRHR1 (human)) did it give?
**A.** 0%

**Q.** And the % Activity (agonist mode, 1 µM) (FFAR1 (human))?
**A.** -4%

**Q.** What about the % Activity (agonist mode, 1 µM) (C5aR1 (human)) of the same binder?
**A.** 0%

**Q.** What about the % Activity (agonist mode, 1 µM) (GHSR (human)) of the same binder?
**A.** -1%

**Q.** And the % Activity (agonist mode, 1 µM) (HTR5A (human))?
**A.** 0%

**Q.** And the % Activity (agonist mode, 1 µM) (RXFP3 (human))?
**A.** -3%

**Q.** And the % Activity (agonist mode, 1 µM) (GPR103 (human))?
**A.** 4%

**Q.** And the % Activity (agonist mode, 1 µM) (HRH3 (human))?
**A.** -2%

**Q.** What about the % Activity (agonist mode, 1 µM) (MCHR2 (human)) of the same binder?
**A.** 1%

**Q.** What about the % Activity (agonist mode, 1 µM) (HTR2C (human)) of the same binder?
**A.** 0%

**Q.** And the % Activity (agonist mode, 1 µM) (NPBWR1 (human))?
**A.** 2%

**Q.** And the % Activity (agonist mode, 1 µM) (MC1R (human))?
**A.** 1%

**Q.** What about the % Activity (agonist mode, 1 µM) (EDG1 (human)) of the same binder?
**A.** 0%

**Q.** And the % Activity (agonist mode, 1 µM) (KISS1R (human))?
**A.** 0%

**Q.** What about the % Activity (agonist mode, 1 µM) (CXCR6 (human)) of the same binder?
**A.** 1%

**Q.** What about the % Activity (agonist mode, 1 µM) (TBXA2R (human)) of the same binder?
**A.** 1%

**Q.** What about the % Activity (agonist mode, 1 µM) (PTGER3 (human)) of the same binder?
**A.** 1%

**Q.** What about the % Activity (agonist mode, 1 µM) (PTGER2 (human)) of the same binder?
**A.** 1%

**Q.** What about the % Activity (agonist mode, 1 µM) (CXCR1 (human)) of the same binder?
**A.** 0%

**Q.** What about the % Activity (agonist mode, 1 µM) (CHRM5 (human)) of the same binder?
**A.** 5%

**Q.** What about the % Activity (agonist mode, 1 µM) (F2RL3 (human)) of the same binder?
**A.** 2%

**Q.** And the % Activity (agonist mode, 1 µM) (HCRTR1 (human))?
**A.** 0%

**Q.** And the % Activity (agonist mode, 1 µM) (TSHR(L) (human))?
**A.** -1%

**Q.** And the % Activity (agonist mode, 1 µM) (TACR1 (human))?
**A.** 0%

**Q.** And the % Activity (agonist mode, 1 µM) (EDNRA (human))?
**A.** -1%

**Q.** And the % Activity (agonist mode, 1 µM) (LTB4R (human))?
**A.** -1%

**Q.** And the % Activity (agonist mode, 1 µM) (CXCR7 (human))?
**A.** -1%

**Q.** And the % Activity (agonist mode, 1 µM) (AVPR1B (human))?
**A.** 1%

**Q.** And the % Activity (agonist mode, 1 µM) (CCR1 (human))?
**A.** 3%

**Q.** And the % Activity (agonist mode, 1 µM) (GALR2 (human))?
**A.** -4%

**Q.** And the % Activity (agonist mode, 1 µM) (HTR1E (human))?
**A.** 1%

**Q.** What about the % Activity (agonist mode, 1 µM) (BDKRB2 (human)) of the same binder?
**A.** 0%

**Q.** What about the % Activity (agonist mode, 1 µM) (GRPR (human)) of the same binder?
**A.** 0%

**Q.** What about the % Activity (agonist mode, 1 µM) (GPR35 (human)) of the same binder?
**A.** 1%

**Q.** And the % Activity (agonist mode, 1 µM) (DRD2S (human))?
**A.** 0%

**Q.** What about the % Activity (agonist mode, 1 µM) (PROKR2 (human)) of the same binder?
**A.** 2%

**Q.** What about the % Activity (agonist mode, 1 µM) (GCGR (human)) of the same binder?
**A.** -2%

**Q.** What about the % Activity (agonist mode, 1 µM) (PPYR1 (human)) of the same binder?
**A.** 1%

**Q.** And the % Activity (agonist mode, 1 µM) (PTGER4 (human))?
**A.** -2%

**Q.** What about the % Activity (agonist mode, 1 µM) (P2RY11 (human)) of the same binder?
**A.** 0%

**Q.** What about the % Activity (agonist mode, 1 µM) (CCR9 (human)) of the same binder?
**A.** 0%

**Q.** What about the % Activity (agonist mode, 1 µM) (PRLHR (human)) of the same binder?
**A.** 1%

**Q.** What about the % Activity (agonist mode, 1 µM) (VIPR2 (human)) of the same binder?
**A.** -1%

**Q.** And the % Activity (agonist mode, 1 µM) (NPBWR2 (human))?
**A.** 1%

**Q.** And the % Activity (agonist mode, 1 µM) (PTAFR (human))?
**A.** -2%

**Q.** And the % Activity (agonist mode, 1 µM) (MC4R (human))?
**A.** 0%

**Q.** And the % Activity (agonist mode, 1 µM) (AVPR2 (human))?
**A.** 0%

**Q.** What about the % Activity (agonist mode, 1 µM) (ADRA2A (human)) of the same binder?
**A.** 3%

**Q.** And the % Activity (agonist mode, 1 µM) (P2RY6 (human))?
**A.** 0%

**Q.** What about the % Activity (agonist mode, 1 µM) (CNR2 (human)) of the same binder?
**A.** 2%

**Q.** What about the % Activity (agonist mode, 1 µM) (ADRA2B (human)) of the same binder?
**A.** -1%

**Q.** And the % Activity (agonist mode, 1 µM) (EDG3 (human))?
**A.** -1%

**Q.** And the % Activity (agonist mode, 1 µM) (CCR4 (human))?
**A.** 0%

**Q.** And the % Activity (agonist mode, 1 µM) (OXER1 (human))?
**A.** -2%

**Q.** And the % Activity (agonist mode, 1 µM) (CCKBR (human))?
**A.** 2%

**Q.** And the % Activity (agonist mode, 1 µM) (ADCYAP1R1 (human))?
**A.** 0%

**Q.** And the % Activity (agonist mode, 1 µM) (C5L2 (human))?
**A.** -1%

**Q.** And the % Activity (agonist mode, 1 µM) (BDKRB1 (human))?
**A.** -5%

**Q.** What about the % Activity (agonist mode, 1 µM) (HCRTR2 (human)) of the same binder?
**A.** 0%
